Molecular target: protein A on the surface of Staphylococcus aureus cells (ATCC 12598) (Staphylococcus aureus, UniProt P38507 37-477)
Experiment: cell-based or functional assay

B1: sdAb-NAEB: single domain antibody HVHP428 (human VH) conjugated to rhodamine 6G gold nanoaggregate embedded beads with silica shell (other)
VH: QLQLQESGGGLVQPGGSLRLSCAASGFTFSSYAMSWFRQAPGKGLEWVGFIRSKAYGGTTEYAASVKGRFTISRDDSKSIAYLQMNSLRAEDTAMYYCARRAKDGYNSPEDYWGQGTLVTVSS
modifications: covalently coupled by EDC/NHS chemistry to the amine- or carboxylate-modified silica shell of the bead; coupled residues not stated
  agglutination relative to the sdAb pentamer (Ryan et al., 2009; MAC value 3×10^13 pentamer mL^-1): > 100 fold

Source: patent US20110269148A1 (published 2011)
